According to PMC10382678, “The collagen ColQ binds to LRP4 and regulates the activation of the Muscle-Specific Kinase–LRP4 receptor complex by agrin at the neuromuscular junction” (The Journal of Biological Chemistry, 2023):

Experiments:
[1] = target: T1, purified recombinant mouse ectoLRP4 His-tag (R&D Systems) (mouse, UniProt Q8VI56 21-1725); test: SPR; same ColQ-Flag surface; single-cycle kinetics with purified ectoLRP4-His at 296, 444, 666, 1000 and 1500 nM, 5 μl/min, 3 min association, 5 min dissociation, no regeneration; HBS-EP; 1:1 binding model with drifting baseline; n = 2; conditions: one partner purified
T1 construct: low-density lipoprotein receptor-related protein 4, mouse, ectodomain; also called purified ectoLRP4; source: bought: R&D Systems

[2] = target: the molecule itself; test: co-sedimentation; extracts (0.8 M NaCl, 1% CHAPS) of HEK 293T cells cotransfected with ColQ-Flag and AChE, run on 5 to 20% sucrose gradients with 0.8 M NaCl, 10 mM EDTA, 0.2% Brij-97; fractions assayed for AChE activity; profile not shown

T1 sequence (Q8VI56 21-1725): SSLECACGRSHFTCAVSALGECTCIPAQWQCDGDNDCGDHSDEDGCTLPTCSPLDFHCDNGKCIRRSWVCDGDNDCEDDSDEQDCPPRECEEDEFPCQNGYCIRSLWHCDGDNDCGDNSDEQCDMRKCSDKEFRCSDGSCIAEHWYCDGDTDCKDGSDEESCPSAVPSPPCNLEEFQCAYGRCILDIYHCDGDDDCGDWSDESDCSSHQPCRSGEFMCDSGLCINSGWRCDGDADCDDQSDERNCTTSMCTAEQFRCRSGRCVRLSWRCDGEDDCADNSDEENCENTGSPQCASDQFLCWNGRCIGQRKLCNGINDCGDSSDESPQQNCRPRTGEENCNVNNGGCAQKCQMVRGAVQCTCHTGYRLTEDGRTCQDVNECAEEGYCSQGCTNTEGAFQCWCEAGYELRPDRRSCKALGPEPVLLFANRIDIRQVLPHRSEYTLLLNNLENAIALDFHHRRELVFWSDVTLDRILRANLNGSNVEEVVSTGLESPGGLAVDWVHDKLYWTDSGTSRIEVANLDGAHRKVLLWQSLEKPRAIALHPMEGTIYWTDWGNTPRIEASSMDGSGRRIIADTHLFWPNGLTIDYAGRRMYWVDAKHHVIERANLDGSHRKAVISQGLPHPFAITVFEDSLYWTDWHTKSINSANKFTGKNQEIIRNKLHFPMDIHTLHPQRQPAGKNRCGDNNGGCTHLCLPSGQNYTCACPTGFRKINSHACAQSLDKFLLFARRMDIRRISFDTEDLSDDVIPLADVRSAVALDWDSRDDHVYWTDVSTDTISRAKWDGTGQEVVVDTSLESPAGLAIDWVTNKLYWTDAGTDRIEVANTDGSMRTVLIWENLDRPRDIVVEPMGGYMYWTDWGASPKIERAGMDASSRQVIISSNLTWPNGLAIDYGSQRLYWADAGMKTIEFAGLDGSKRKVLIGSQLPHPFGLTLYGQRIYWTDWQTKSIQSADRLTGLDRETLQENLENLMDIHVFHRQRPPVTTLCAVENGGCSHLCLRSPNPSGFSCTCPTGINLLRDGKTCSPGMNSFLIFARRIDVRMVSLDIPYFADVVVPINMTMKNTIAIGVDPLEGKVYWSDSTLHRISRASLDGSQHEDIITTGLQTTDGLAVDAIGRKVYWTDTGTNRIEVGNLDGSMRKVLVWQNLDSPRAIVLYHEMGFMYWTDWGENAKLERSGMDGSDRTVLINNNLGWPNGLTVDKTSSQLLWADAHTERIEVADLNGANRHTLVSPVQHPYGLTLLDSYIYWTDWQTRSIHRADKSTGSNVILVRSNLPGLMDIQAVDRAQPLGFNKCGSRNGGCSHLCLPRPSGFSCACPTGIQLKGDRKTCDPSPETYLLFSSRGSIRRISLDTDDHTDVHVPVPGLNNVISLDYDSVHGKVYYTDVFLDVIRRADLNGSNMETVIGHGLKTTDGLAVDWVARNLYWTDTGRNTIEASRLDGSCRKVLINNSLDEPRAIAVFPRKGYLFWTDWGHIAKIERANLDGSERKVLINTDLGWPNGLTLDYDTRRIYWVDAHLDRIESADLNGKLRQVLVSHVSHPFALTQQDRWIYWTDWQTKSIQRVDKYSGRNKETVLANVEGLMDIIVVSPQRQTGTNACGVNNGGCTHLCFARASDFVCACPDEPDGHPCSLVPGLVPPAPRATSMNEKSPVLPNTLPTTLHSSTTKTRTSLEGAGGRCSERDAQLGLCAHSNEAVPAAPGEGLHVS

Kd [1]: 94 nM
koff [1]: 0.0091 s⁻¹
kon [1]: 96400 M⁻¹ s⁻¹
B1: ColQ-Flag (rat collagen Q, ColQ1a, with a Flag epitope after amino acid 26) (natural protein, UniProt O35167 23-458, looked up)
chain: QPTFINSVLPISAALPGLDQKKRGNHKACCLLMPPPPPLFPPPFFRGSRSPLLSPDMKNLLELEASPSPCMQGSLGSPGPPGPQGPPGLPGKAGPKGEKGDLGRPGRKGRPGPPGVPGEPGPVGWPGPEGPRGEKGDVGMMGLPGSRGPMGSKGFPGSRGEKGSRGERGDLGPKGEKGFPGFPGMLGQKGEMGPKGESGIAGHRGPTGRPGKRGKQGQKGDSGIMGPPGKPGPSGQPGRQGPPGPPGPPSAGQLVMGLKGERGFPGPPGRCLCGPPANVNNPSYGDPMYGRGSPRVPAIFVVNNQEELEKLNTQNAIAFRRDQRSLYFKDSLGWLPIQLTPFYPVGLHHKAAWHLCGDGVLQPGEECDDGNPDVSDGCIDCHRAYCGDGYRHRGVEDCDGSDFGYLKCETYLPGSYGELRCTQYCSIDSTPCRYFT
notes: Never purified on its own, only immunocaptured from lysates; source: captured from the lysate on anti-Flag beads, wells or sensor chip; not shown: Flag, internal (after residue 26), kept
stoichiometry N [2]: 3
